Laboratory results: patent US20180346594A1
One block for each substance: values may come before it.

Experiments:
[1] = target: 16C3 antigen (human colorectal and pancreatic carcinoma-associated antigen, CPAA, recognized by the 16C3 antibody) (human); assay: FACS, AsPC-1 cells, 5 uL
[2] = target: 16C3 antigen (human colorectal and pancreatic carcinoma-associated antigen, CPAA, recognized by the 16C3 antibody) (human); assay: FACS, HT-29 colorectal cells
[3] = target: 16C3 antigen (human colorectal and pancreatic carcinoma-associated antigen, CPAA, recognized by the 16C3 antibody) (human); assay: FACS, AsPC-1 cells, 20 ng antibody
[4] = target: 16C3 antigen (human colorectal and pancreatic carcinoma-associated antigen, CPAA, recognized by the 16C3 antibody) (human); assay: FACS, CFPAC-1 pancreatic cells
[5] = target: 16C3 antigen (human colorectal and pancreatic carcinoma-associated antigen, CPAA, recognized by the 16C3 antibody) (human); assay: FACS, AsPC-1 cells, 100 ng antibody
[6] = target: 16C3 antigen (human colorectal and pancreatic carcinoma-associated antigen, CPAA, recognized by the 16C3 antibody) (human); assay: FACS, AsPC-1 cells, 4 ng antibody
[7] = target: 16C3 antigen (human colorectal and pancreatic carcinoma-associated antigen, CPAA, recognized by the 16C3 antibody) (human); assay: FACS, LS174T colorectal cells
[8] = target: 16C3 antigen (human colorectal and pancreatic carcinoma-associated antigen, CPAA, recognized by the 16C3 antibody) (human); assay: FACS, AsPC-1 cells, 1 ug antibody
[9] = target: 16C3 antigen (human colorectal and pancreatic carcinoma-associated antigen, CPAA, recognized by the 16C3 antibody) (human); assay: FACS, AsPC-1 pancreatic cells
[10] = target: 16C3 antigen (human colorectal and pancreatic carcinoma-associated antigen, CPAA, recognized by the 16C3 antibody) (human); assay: FACS, AsPC-1 cells, 0.8 ng antibody
[11] = target: 16C3 antigen (human colorectal and pancreatic carcinoma-associated antigen, CPAA, recognized by the 16C3 antibody) (human); assay: FACS, CFPAC-1 pancreatic cells, secondary antibody only
[12] = target: 16C3 antigen (human colorectal and pancreatic carcinoma-associated antigen, CPAA, recognized by the 16C3 antibody) (human); assay: FACS, AsPC-1 pancreatic cells, secondary antibody only
[13] = target: 16C3 antigen (human colorectal and pancreatic carcinoma-associated antigen, CPAA, recognized by the 16C3 antibody) (human); assay: FACS, LS174T cells, secondary antibody only
[14] = target: 16C3 antigen (human colorectal and pancreatic carcinoma-associated antigen, CPAA, recognized by the 16C3 antibody) (human); assay: FACS, LS174T colorectal cells, secondary antibody only
[15] = target: 16C3 antigen (human colorectal and pancreatic carcinoma-associated antigen, CPAA, recognized by the 16C3 antibody) (human); assay: FACS, AsPC-1 cells, secondary antibody only
[16] = target: 16C3 antigen (human colorectal and pancreatic carcinoma-associated antigen, CPAA, recognized by the 16C3 antibody) (human); assay: FACS, HT-29 colorectal cells, secondary antibody only
[17] = target: 16C3 antigen (human colorectal and pancreatic carcinoma-associated antigen, CPAA, recognized by the 16C3 antibody) (human); assay: FACS, CFPAC-1 cells, secondary antibody only

- % AsPC-1 Cells Stained [1]: 81.4%
- mfi [1]: 34 mfi
- % Cell Staining [2]: 91%
- mfi [2]: 78 mfi
- % AsPC-1 tumor cell binding [3]: 47.9%
- MFI [3]: 69 MFI
- % Cell Staining [4]: 96.2%
- mfi [4]: 323 mfi
- % AsPC-1 tumor cell binding [5]: 61.7%
- MFI [5]: 228 MFI
- % AsPC-1 tumor cell binding [6]: 4.26%
- MFI [6]: 52 MFI
- % Cell Staining [7]: 40.6%
- mfi [7]: 59 mfi
- % AsPC-1 Cells Stained [8]: 89.5%
- mfi [8]: 138 mfi
- % Cell Staining [9]: 69.9%
- mfi [9]: 36 mfi
- % AsPC-1 tumor cell binding [10]: 1.28%
- MFI [10]: 615 MFI
Substance: 16C3 mAb (murine monoclonal antibody, IgG1 heavy chain, kappa light chain)

- % Cell Staining [11]: 0.83%
- mfi [11]: 14 mfi
- % Cell Staining [12]: 2.68%
- mfi [12]: 30 mfi
- % LS174T tumor cell binding [13]: 1.63%
- MFI [13]: 43 MFI
- % Cell Staining [14]: 0.94%
- mfi [14]: 15 mfi
- % AsPC-1 Cells Stained [15]: 1.01%
- % AsPC-1 tumor cell binding [15]: 1.55%
- MFI [15]: 70 MFI
- mfi [15]: 8 mfi
- % Cell Staining [16]: 0.84%
- mfi [16]: 10 mfi
Substance: Goat anti-Mouse IgG-FITC control (fluorescein-labelled goat anti-mouse antibody, secondary reagent alone)

- % binding to CFPAC-1 cells [17]: 2.1%
- mfi [17]: 20 mfi
- % binding to LS174T cells [13]: 3.49%
- mfi [13]: 33 mfi
- % AsPC-1 tumor cell binding [15]: 2.05%
- MFI [15]: 59 MFI
Substance: Rabbit anti-Human IgG-FITC control (secondary reagent alone) (antibody)
